Laboratory results: publication PMC11262565
pKd: −log10 of the molar value.

Target: biotinylated human IgG1 Fc protein (IG1-H8213, ACROBiosystems) (human)
Test: BLI

| pKd | Substance |
| --- | --- |
| 8.11 | Fc-ARM A-Z (HER2-specific affibody Z_(HER2:342) fused to a single Z domain) (designed binder) |
| 9.55 | Fc-ARM A-ZZ (HER2-specific affibody Z_(HER2:342) fused to double Z domains) (designed binder) |
